Measurements published in patent publication US20250270341A1 (Alector, published 2025).

T1: huCD98hc ECD Avi-His (human, UniProt P08195 105-529)
T1 construct: biotinylated on the Avi tag where captured on streptavidin; also called Human CD98-AVI-His; Human CD98hc-AVI-His
T1 sequence: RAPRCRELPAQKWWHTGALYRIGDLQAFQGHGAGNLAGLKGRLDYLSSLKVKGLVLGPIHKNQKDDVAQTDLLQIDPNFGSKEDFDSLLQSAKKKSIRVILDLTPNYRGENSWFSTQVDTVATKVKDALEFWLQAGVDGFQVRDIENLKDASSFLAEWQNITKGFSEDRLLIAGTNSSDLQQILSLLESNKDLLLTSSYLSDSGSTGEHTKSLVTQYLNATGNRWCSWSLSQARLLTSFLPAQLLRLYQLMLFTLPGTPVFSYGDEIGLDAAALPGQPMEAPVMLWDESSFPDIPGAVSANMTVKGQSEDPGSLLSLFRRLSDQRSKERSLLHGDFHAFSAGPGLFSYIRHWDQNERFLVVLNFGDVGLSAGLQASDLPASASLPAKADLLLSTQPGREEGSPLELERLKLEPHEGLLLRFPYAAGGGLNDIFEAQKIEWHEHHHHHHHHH

T2: Cyno CD98hc ECD Avi-His (cynomolgus macaque, UniProt P08195 105-529 (human entry))
T2 construct: biotinylated on the Avi tag where captured on streptavidin; also called Cyno CD98-AVI-His; Cyno CD98hc-AVI-His
T2 chain: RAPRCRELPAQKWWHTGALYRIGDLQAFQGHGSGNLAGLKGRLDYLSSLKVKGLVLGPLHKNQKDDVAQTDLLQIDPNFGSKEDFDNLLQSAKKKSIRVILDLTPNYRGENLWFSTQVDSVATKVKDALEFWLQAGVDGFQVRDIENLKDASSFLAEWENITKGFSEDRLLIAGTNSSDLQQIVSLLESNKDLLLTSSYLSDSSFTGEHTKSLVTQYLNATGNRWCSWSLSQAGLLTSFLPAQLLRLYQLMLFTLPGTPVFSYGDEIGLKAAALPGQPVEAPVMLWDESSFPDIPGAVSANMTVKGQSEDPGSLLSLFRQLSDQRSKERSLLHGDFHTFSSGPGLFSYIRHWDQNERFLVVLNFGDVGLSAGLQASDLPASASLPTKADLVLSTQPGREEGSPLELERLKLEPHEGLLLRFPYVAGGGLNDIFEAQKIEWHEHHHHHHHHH


What was measured:
huCD98hc ECD Avi-His [1] = target: T1, huCD98hc ECD Avi-His; assay: SPR, Biacore T200, anti-kappa capture
Procedure: (§1) Binding kinetics of 2+1 anti-CD98hc bispecific antibodies to recombinant human and cynomolgus CD98hc ECD Avi-His were evaluated using a Biacore T200 instrument (Global Life Sciences Solutions USA LLC, Marlborough, MA). The 2+1 anti-CD98hc bispecific antibodies were prepared by diluting to 50 μg/mL in running buffer HBS-EP+ (Teknova) with 0.5 mg/mL BSA (MP Biomedicals) and captured by a goat anti-human kappa polyclonal antibody (Southern Biotech) surface that was prepared according to the instrument manufacturer's recommendations. Two independent experiments were performed as follows, resulting in an N of between one and […] determinations for each antibody. Estimates of affinity were generated by injecting each analyte over captured antibody on Flowcell 2, 3, or 4. CD98hc ECD Avi-His analytes were diluted with running buffer, in a series of five, three-fold serial dilutions starting from 600 nM. Analytes were injected without regeneration, from lowest to highest concentration, for 5 minutes each, and dissociation was followed for 15 minutes. After each analyte injection series, antibodies were regenerated with 10 mM glycine pH 2.0 buffer (Cytiva). Data were processed and analyzed using Biacore T200 BiaEvaluation software (Cytiva).
(§2) The equilibrium dissociation constants (KD) were calculated from the fitted association and dissociation rate constants (k-on and k-off) for 2+1 anti-CD98hc bispecific antibodies of the present disclosure binding to human and cynomolgus CD98hc ECD Avi-His. For measurements with N>1, means and standard deviation were calculated and measurements for all samples were combined and graphed using GraphPad Prism.

Cyno CD98hc ECD Avi-His [2] = target: T2, Cyno CD98hc ECD Avi-His; assay: SPR, Biacore T200, anti-kappa capture
Procedure: as §1, §2

huCD98hc ECD Avi-His [3] = target: T1, huCD98hc ECD Avi-His; assay: SPR, Biacore T200, Protein A/G capture
Procedure: (§3) Binding kinetics of humanized anti-CD98hc antibodies were evaluated using the Biacore T200 (Cytiva). Briefly, IgGs were diluted to 10 μg/mL and captured using a Protein A/G (ThermoFisher, #21186) surface on a CM5 chip that was prepared by amine coupling according to the instrument manufacturer's recommendations. The captured antibodies were tested for their ability to bind human and cynomolgus monkey CD98hc as follows.
(§4) Each sample was injected for 2 minutes to allow association, followed by dissociation in buffer alone for 10 minutes. Each sample injection was followed by the regeneration of the chip with three 30-second injections of 10 mM glycine pH 1.7. Fresh antibody was captured at the beginning of each cycle.
(§5) Data were analyzed using Biacore evaluation software to generate kinetic constants. The equilibrium dissociation constants (KD) were calculated from the fitted association and dissociation rate constants (k-on and k-off) for each of the anti-CD98hc antibodies.

Cyno CD98hc ECD Avi-His [4] = target: T2, Cyno CD98hc ECD Avi-His; assay: SPR, Biacore T200, Protein A/G capture
Procedure: as §3, §4, §5

Binder | Kd (huCD98hc ECD Avi-His [1]) [nM] | Kd (Cyno CD98hc ECD Avi-His [2]) [nM] | Kd (huCD98hc ECD Avi-His [3]) [nM] | Kd (Cyno CD98hc ECD Avi-His [4]) [nM]
CD98hc.04.064.1d (humanized, 2+1 format) (bispecific antibody, tested as 2+1 bispecific (scFv on an IgG)) scFv: QVQLVQSGAEVKKPGASVKVSCKASGYTFTSYWMNWVRQAPGQGLEWMGIIDPSDSETSYAQKFQGRVTMTVDKSTSTVYMELSSLRSEDTAVYYCARASYGKGYFDYWGQGTLVTVSSGGSEGKSSGSGSESKSTGGSDIVMTQSPDSLAVSLGERATINCKSSQSLLNNINQKNYLAWYQQKPGQPPKLLIYFASTRESGVPDRFSGSGSGTDFTLTISSLQAEDVAVYYCQQHYSSPFTFGGGTKVEIK | 24 | 360 | 35 | 1500
CD98hc.04.064.4c (humanized, 2+1 format) (bispecific antibody, tested as 2+1 bispecific (scFv on an IgG)) scFv: QVQLVQSGAEVKKPGASVKVSCKASGYTFTSYWMHWVRQAPGQGLEWMGIIDPSDSETNYAQKFQGRVTSTVDKSISTAYMELSRLRSDDTVVYYCARASYGKGYFDYWGQGTLVTVSSGGSEGKSSGSGSESKSTGGSDIVMTQSPDSLAVSLGERATINCKSSQSLLNNINQKNYLAWYQQKPGQPPKLLIYFASTRESGVPDRFSGSGSGTDFTLTISSLQAEDVAVYYCQQHYSSPFTFGGGTKVEIK | 17 | 310 |  | 
CD98hc.04.064.1e (humanized, 2+1 format) (bispecific antibody, tested as 2+1 bispecific (scFv on an IgG)) scFv: QVQLVQSGAEVKKPGASVKVSCKASGYTFTSYWMHWVRQAPGQGLEWMGIIDPSDSETHYAQKFQGRVTMTVDKSTSTVYMELSSLRSEDTAVYYCARASYGKGYFDYWGQGTLVTVSSGGSEGKSSGSGSESKSTGGSDIVMTQSPDSLAVSLGERATINCKSSQSLLNNINQKNYLAWYQQKPGQPPKLLIYFASTRESGVPDRFSGSGSGTDFTLTISSLQAEDVAVYYCQQHYSSPFTFGGGTKVEIK | 13 | 120 | 25 | 740
CD98hc.04.064.4b (humanized, 2+1 format) (bispecific antibody, tested as 2+1 bispecific (scFv on an IgG)) scFv: QVQLVQSGAEVKKPGASVKVSCKASGYTFTSYWMNWVRQAPGQGLEWMGIIDPSDSETNYAQKFQGRVTSTVDKSISTAYMELSRLRSDDTVVYYCARASYGKGYFDYWGQGTLVTVSSGGSEGKSSGSGSESKSTGGSDIVMTQSPDSLAVSLGERATINCKSSQSLLNNINQKNYLAWYQQKPGQPPKLLIYFASTRESGVPDRFSGSGSGTDFTLTISSLQAEDVAVYFCQQHYSSPFTFGGGTKVEIK | 30 | 620 |  | 
CD98hc.04.064.4d (humanized, 2+1 format) (bispecific antibody, tested as 2+1 bispecific (scFv on an IgG)) scFv: QVQLVQSGAEVKKPGASVKVSCKASGYTFTSYWMHWVRQAPGQGLEWMGIIDPSDSETSYAQKFQGRVTMTRDTSTSTVYMELSSLRSEDTAVYYCARASYGKGYFDYWGQGTLVTVSSGGSEGKSSGSGSESKSTGGSDIQMTQSPSSLSASVGDRVTITCRASQSLLNNINQKNYLAWYQQKPGKAPKLLIYFASSLQSGVPSRFSGSGSGTDFTLTISSLQPEDFATYYCQQHYSSPFTFGGGTKVEIK | 12 | 160 | 18 | 340
